Values belong to the binder of their own block, whether it stands above or below them.
How the values were obtained:
[1] = target: T1, purified recombinant LGR5 ectodomain-IgG-Fc fusion (human, UniProt O75473 22-561); assay: ELISA of the ternary complex: R-spondin 2 preincubated with LGR5-Fc, co-receptor-Fc coated
T1 construct: also called human LGR5-Fc; hLGR5-Fc; not shown: IgG Fc
T1 sequence: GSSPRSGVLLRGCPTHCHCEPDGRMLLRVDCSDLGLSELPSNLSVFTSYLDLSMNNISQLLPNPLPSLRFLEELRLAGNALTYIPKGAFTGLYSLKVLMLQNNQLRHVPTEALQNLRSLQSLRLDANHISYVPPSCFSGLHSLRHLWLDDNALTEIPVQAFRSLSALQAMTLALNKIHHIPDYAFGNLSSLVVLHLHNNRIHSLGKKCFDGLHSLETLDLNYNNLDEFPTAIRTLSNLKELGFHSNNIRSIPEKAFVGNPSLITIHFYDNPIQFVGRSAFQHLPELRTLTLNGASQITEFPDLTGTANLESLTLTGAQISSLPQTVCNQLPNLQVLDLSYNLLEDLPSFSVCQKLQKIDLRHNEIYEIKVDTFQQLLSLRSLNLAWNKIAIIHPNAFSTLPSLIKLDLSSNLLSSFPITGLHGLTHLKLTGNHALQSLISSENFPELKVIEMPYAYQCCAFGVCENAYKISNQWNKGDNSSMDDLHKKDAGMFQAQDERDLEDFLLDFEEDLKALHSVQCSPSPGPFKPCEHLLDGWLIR

[2] = target: T1, purified recombinant LGR5 …; assay: ELISA of the ternary complex: R-spondin 3 preincubated with LGR5-Fc, co-receptor-Fc coated
Method: (§1) RNF43-Fc, ZNRF3-Fc, and LRP6-Fc were coated on a 96-well high binding plate at 4 μg/mL in 1×PBS. The plate was incubated overnight at 4° C. and blocked with PBS+1% BSA. […] Triplicate wells were used for each condition was tested in triplicate. […] 1:10,000 dilution of anti-mouse IgG HRP (JIR) was used for detection. […] Data analysis was done using GraphPad Prism 6 program.

[3] = target: T1, purified recombinant LGR5 …; assay: ELISA of the ternary complex: R-spondin 4 preincubated with LGR5-Fc, co-receptor-Fc coated
Method: as §1

[4] = target: T1, purified recombinant LGR5 …; assay: ELISA of the ternary complex: R-spondin 1 preincubated with LGR5-Fc, co-receptor-Fc coated
Method: as §1

B2: human R-spondin 3 (ligand, UniProt Q9BXY4 22-272, looked up)
chain: QNASRGRRQRRMHPNVSQGCQGGCATCSDYNGCLSCKPRLFFALERIGMKQIGVCLSSCPSGYYGTRYPDINKCTKCKADCDTCFNKNFCTKCKSGFYLHLGKCLDNCPEGLEANNHTMECVSIVHCEVSEWNPWSPCTKKGKTCGFKRGTETRVREIIQHPSAKGNLCPPTNETRKCTVQRKKCQKGERGKKGRERKRKKPNKGESKEAIPDSKSLESSKEIPEQRENKQQQKKRKVQDKQKSVSVSTVH
notes: mature; Bought; printed as 'full length constructs expressed in mammalian cells'; also called RSPO3; R-spo3
binding result [2]: binds

B4: human R-spondin 1 (ligand, UniProt Q2MKA7 21-263, looked up)
chain: SRGIKGKRQRRISAEGSQACAKGCELCSEVNGCLKCSPKLFILLERNDIRQVGVCLPSCPPGYFDARNPDMNKCIKCKIEHCEACFSHNFCTKCKEGLYLHKGRCYPACPEGSSAANGTMECSSPAQCEMSEWSPWGPCSKKQQLCGFRRGSEERTRRVLHAPVGDHAACSDTKETRRCTVRRVPCPEGQKRRKGGQGRRENANRNLARKESKEAGAGSRRRKGQQQQQQQGTVGPLTSAGPA
notes: mature; Bought; printed as 'full length constructs expressed in mammalian cells'; also called RSPO1; R-spo1
binding result [4]: binds

The next lines start with the values.

binding result [1]: binds
B1: human R-spondin 2 (ligand, UniProt Q6UXX9 22-243, looked up)
chain: QGNRWRRSKRASYVSNPICKGCLSCSKDNGCSRCQQKLFFFLRREGMRQYGECLHSCPSGYYGHRAPDMNRCARCRIENCDSCFSKDFCTKCKVGFYLHRGRCFDECPDGFAPLEETMECVEGCEVGHWSEWGTCSRNNRTCGFKWGLETRTRQIVKKPVKDTILCPTIAESRRCKMTMRHCPGGKRTPKAKEKRNKKKKRKLIERAQEQHSVFLATDRANQ
notes: mature; Bought; printed as 'full length constructs expressed in mammalian cells'; also called RSPO2; R-spo2

binding result [3]: binds
B3: human R-spondin 4 (ligand, UniProt Q2I0M5 20-234, looked up)
chain: LNRRKKQVGTGLGGNCTGCIICSEENGCSTCQQRLFLFIRREGIRQYGKCLHDCPPGYFGIRGQEVNRCKKCGATCESCFSQDFCIRCKRQFYLYKGKCLPTCPPGTLAHQNTRECQGECELGPWGGWSPCTHNGKTCGSAWGLESRVREAGRAGHEEAATCQVLSESRKCPIQRPCPGERSPGQKKGRKDRRPRKDRKLDRRLDVRPRQPGLQP
notes: mature; Bought; printed as 'full length constructs expressed in mammalian cells'; also called RSPO4; R-spo4
